Assay results taken from US20120149636A1.

How the values were obtained:
[1] = biological target: T1, full length rat GHR (L43R) on BAF3 cells (rat) (UniProt P16310); experiment: cell-based or functional assay
T1 sequence (looked up): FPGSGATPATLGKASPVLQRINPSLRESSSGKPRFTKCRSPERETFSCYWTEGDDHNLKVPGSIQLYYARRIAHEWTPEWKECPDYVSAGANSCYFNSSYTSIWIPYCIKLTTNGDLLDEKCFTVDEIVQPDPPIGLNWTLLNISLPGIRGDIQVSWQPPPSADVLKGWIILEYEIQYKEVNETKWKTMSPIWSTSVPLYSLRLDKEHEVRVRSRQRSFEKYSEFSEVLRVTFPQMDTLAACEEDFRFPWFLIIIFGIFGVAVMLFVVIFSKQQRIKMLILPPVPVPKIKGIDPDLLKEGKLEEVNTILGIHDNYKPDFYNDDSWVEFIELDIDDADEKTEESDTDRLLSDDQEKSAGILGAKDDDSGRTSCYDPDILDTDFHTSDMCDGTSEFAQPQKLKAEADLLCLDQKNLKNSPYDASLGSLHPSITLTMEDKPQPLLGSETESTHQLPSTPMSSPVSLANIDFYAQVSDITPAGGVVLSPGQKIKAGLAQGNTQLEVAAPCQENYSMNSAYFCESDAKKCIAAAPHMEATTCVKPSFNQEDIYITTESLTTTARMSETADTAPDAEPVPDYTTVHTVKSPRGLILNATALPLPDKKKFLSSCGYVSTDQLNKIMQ

[2] = biological target: human growth hormone receptor on IM-9 cells (human) (UniProt P10912); experiment: cell-based or functional assay
Chain of UniProt P10912 (P10912 19-638): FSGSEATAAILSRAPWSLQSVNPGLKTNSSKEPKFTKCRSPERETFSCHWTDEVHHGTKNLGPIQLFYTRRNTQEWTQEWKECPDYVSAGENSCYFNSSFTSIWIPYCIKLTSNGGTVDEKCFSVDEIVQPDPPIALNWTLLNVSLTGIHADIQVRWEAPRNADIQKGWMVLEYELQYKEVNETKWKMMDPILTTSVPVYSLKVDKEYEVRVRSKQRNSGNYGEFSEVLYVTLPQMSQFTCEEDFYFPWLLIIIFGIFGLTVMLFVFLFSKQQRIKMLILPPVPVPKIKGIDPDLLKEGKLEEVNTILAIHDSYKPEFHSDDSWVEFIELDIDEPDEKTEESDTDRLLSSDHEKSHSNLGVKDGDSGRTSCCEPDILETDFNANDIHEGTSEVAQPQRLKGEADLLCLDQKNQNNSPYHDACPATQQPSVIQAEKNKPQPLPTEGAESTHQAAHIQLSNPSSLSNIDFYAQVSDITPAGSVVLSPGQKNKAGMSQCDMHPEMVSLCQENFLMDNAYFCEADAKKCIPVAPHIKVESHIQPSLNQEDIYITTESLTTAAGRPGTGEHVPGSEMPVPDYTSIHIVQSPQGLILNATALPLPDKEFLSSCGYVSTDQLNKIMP

Row | Proliferation EC50 (BrdU), WHO hGH expressed as unity (relative, WHO hGH = 1 (head prints nM)) [1] | pSTAT5 EC50 (IM-9), WHO hGH expressed as unity (relative, WHO hGH = 1 (head prints nM)) [2] | Substance
1 | 4.6 | 23.8 | G131pAF-30KPEG (from UniProt P01241 27-217) (ligand)
2 | 24 | 53.3 | Y35pAF-40KPEG (from UniProt P01241 27-217) (ligand)

The remaining lines, values behind:

Row | Substance | Proliferation EC50 (BrdU), WHO hGH expressed as unity (relative, WHO hGH = 1 (head prints nM)) [1] | pSTAT5 EC50 (IM-9), WHO hGH expressed as unity (relative, WHO hGH = 1 (head prints nM)) [2]
3 | K145pAF-30KPEG (from UniProt P01241 27-217) (ligand) | 5.3 | 20.6
4 | R134pAF-20KPEG (from UniProt P01241 27-217) (ligand) |  | 5.3
5 | Y143pAF-30KPEG (from UniProt P01241 27-217) (ligand) | 6.6 | 12.3
